{"source": "patent US20220195043A1", "key": {"[1]": {"target": "human CD3ε-his (Cat #:10977-H08s, SinoBiological, China) (human) (UniProt P07766)", "sequence (P07766 23-126 limits assumed)": "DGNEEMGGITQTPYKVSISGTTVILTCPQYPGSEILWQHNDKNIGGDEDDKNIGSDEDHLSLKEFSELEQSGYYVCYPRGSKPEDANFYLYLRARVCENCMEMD", "assay": "SPR (BIAcore 8K); human CD3ε-his coupled to CM5 chip, antibody injected"}, "[2]": {"target": "monkey CD20 (HEK293A/monkey CD20 cells) (monkey)", "sequence (P11836 other isoform, or with tags, fused parts or gaps)": "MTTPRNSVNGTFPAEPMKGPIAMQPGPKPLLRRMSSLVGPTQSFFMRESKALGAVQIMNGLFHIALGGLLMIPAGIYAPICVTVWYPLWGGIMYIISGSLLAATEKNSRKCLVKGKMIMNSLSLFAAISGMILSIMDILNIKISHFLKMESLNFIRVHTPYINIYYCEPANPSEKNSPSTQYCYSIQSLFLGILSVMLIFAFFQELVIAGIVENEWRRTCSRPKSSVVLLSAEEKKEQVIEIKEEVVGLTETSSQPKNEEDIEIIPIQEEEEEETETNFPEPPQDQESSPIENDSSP", "assay": "FACS on HEK293A/monkey CD20 (CynoCD20) cells, PE anti-human IgG secondary antibody, MFI"}, "[3]": {"target": "human CD3ε-his (Cat #:10977-H08s, SinoBiological, China) (human) (UniProt P07766)", "assay": "ELISA: plate coated with human CD3ε-his (hCD3ε-his), antibody titrated, HRP goat anti-human IgG, OD450"}, "[4]": {"target": "monkey CD3 complex on cell surfaces (monkey PBMCs) (monkey)", "assay": "FACS on monkey PBMCs (Cyno-PBMC), given by the filing as binding to monkey CD3; PE goat anti-human IgG, MFI"}}, "note": "pKd: −log10 of the molar value."}
{"substance": "CD20-TCB (reference bispecific antibody against CD3 and CD20)", "values": [{"measurement": "pKd", "setting": "[1]", "result": 8.25}, {"measurement": "EC50 (read off the curve)", "setting": "[2]", "result": 0.06, "unit": "µg/mL"}, {"measurement": "EC50 (read off the curve)", "setting": "[3]", "result": 0.1, "unit": "µg/mL"}, {"measurement": "EC50 (read off the curve)", "setting": "[4]", "result": 0.6, "unit": "µg/mL"}]}
